Laboratory results as given in article PMC3706463, “The Asymmetric Binding of PGC-1α to the ERRα and ERRγ Nuclear Receptor Homodimers Involves a Similar Recognition Mechanism” (PLoS ONE, 2013).
Several values for one entry are separate records, joined by “and”; a condition that tells them apart may be missing. Equal values may be shown once. One block for each molecule: values may come before it.

B4: ERRγ LBD (ERRγ 229–458) homodimer (domain or fragment, UniProt P62508 229-458, looked up)
chain: PAKKPYNKIVSHLLVAEPEKIYAMPDPTVPDSDIKALTTLCDLADRELVVIIGWAKHIPGFSTLSLADQMSLLQSAWMEILILGVVYRSLSFEDELVYADDYIMDEDQSKLAGLLDLNNAILQLVKKYKSMKLEKEEFVTLKAIALANSDSMHIEDVEAVQKLQDVLHEALQDYEAGQHMEDPRRAGKMLMTLPLLRQTSTKAVQHFYNIKLEGKVPMHKLFLEMLEAKV
notes: also called ERR LBD; source: cloned in pET15b
B7: ERRα LBD (ERRα-189-423) homodimer (domain or fragment, UniProt P11474 189-423, looked up)
chain: KTAAPVNALVSHLLVVEPEKLYAMPDPAGPDGHLPAVATLCDLFDREIVVTISWAKSIPGFSSLSLSDQMSVLQSVWMEVLVLGVAQRSLPLQDELAFAEDLVLDEEGARAAGLGELGAALLQLVRRLQALRLEREEYVLLKALALANSDSVHIEDAEAVEQLREALHEALLEYEAGRAGPGGGAERRRAGRLLLTLPLLRQTAGKVLAHFYGVKLEGKVPMHKLFLEMLEAMMD
notes: also called ERR LBD; source: cloned in pET24b
B8: ERRα LBD (189-423) homodimer with uncleaved His6 tag (domain or fragment, UniProt P11474 189-423, looked up)
chain: KTAAPVNALVSHLLVVEPEKLYAMPDPAGPDGHLPAVATLCDLFDREIVVTISWAKSIPGFSSLSLSDQMSVLQSVWMEVLVLGVAQRSLPLQDELAFAEDLVLDEEGARAAGLGELGAALLQLVRRLQALRLEREEYVLLKALALANSDSVHIEDAEAVEQLREALHEALLEYEAGRAGPGGGAERRRAGRLLLTLPLLRQTAGKVLAHFYGVKLEGKVPMHKLFLEMLEAMMD
notes: source: cloned in pET24b

Legend:
[1] = target: ERRα LBD (ERRα-189-423) homodimer (UniProt P11474); experiment: ITC; PGC-1α RID wild type or LxxLL mutant (340-580 µM) injected into 40-70 µM ERR in the cell; 20°C; 20 mM Hepes pH 7.5, 120 mM NaCl, 0.2 % glycerol; one set of sites model
[2] = target: ERRγ LBD (ERRγ 229-458) homodimer (UniProt P62508); experiment: as above
[3] = target: B7; experiment: not stated; binding of short PGC-1α peptides to ERR LBDs; told only in the discussion; settings: both partners purified
[4] = target: B4; experiment: as above; settings: both partners purified
[5] = target: B7; experiment: ITC; MicroCal iTC200, 20°C, pH 7.5, one set of sites model; apparent; settings: both partners purified
[6] = target: B4; experiment: as above; settings: both partners purified
[7] = target: T1, ERRα LBD (ERRα-189-423) homodimer (UniProt P11474 189-423); experiment: ITC; PGC-1α RID wild type or LxxLL mutant (340-580 µM) injected into 40-70 µM ERR in the cell; 20°C; 20 mM Hepes pH 7.5, 120 mM NaCl, 0.2 % glycerol; one set of sites model; settings: both partners purified
T1 construct: The His6-tag of ERR was cleaved with thrombin for SAXS and left on ERRα for ESI-MS; nothing is said for ITC and native PAGE; also called ERR LBD; source: E. coli BL21 (DE3), purified (HisTrap, SEC)
T1 sequence (looked up): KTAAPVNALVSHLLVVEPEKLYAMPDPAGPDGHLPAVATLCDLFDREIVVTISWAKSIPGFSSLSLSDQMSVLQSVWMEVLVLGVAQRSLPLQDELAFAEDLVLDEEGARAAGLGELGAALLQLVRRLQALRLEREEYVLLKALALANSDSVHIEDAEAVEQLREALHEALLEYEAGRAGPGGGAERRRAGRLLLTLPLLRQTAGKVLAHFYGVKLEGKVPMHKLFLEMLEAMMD

[8] = target: T2, ERRγ LBD (ERRγ 229-458) homodimer (UniProt P62508 229-458); experiment: as above; settings: both partners purified
T2 construct: Cloned in pET15b; The His6-tag of ERR was cleaved with thrombin for SAXS; nothing is said for ITC and native PAGE; also called ERR LBD; source: E. coli BL21 (DE3), purified (HisTrap, SEC)
T2 sequence (looked up): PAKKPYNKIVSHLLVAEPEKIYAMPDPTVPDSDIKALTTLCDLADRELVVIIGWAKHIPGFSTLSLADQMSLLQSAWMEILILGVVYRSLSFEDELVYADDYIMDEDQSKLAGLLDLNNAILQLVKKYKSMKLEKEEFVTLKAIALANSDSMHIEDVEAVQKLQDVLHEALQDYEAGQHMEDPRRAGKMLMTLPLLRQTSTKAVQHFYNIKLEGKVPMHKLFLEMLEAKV

[9] = target: the molecule itself; experiment: native MS; ESI-TOF under non-denaturing conditions, 200 mM ammonium acetate, pH 7.4
PGC-1α NTD (1–285) = target: T3, PGC-1α NTD (1–285) (human, UniProt Q9UBK2 1-285); experiment: SAXS; synchrotron solution scattering (X33 DESY, SWING SOLEIL), direct injection or SEC-coupled; free proteins and complexes; settings: both partners purified
T3 construct: PGC-1α, human, residues 1-285, holds motifs L2 and L3; source: cloned in pET24b
T3 sequence (looked up): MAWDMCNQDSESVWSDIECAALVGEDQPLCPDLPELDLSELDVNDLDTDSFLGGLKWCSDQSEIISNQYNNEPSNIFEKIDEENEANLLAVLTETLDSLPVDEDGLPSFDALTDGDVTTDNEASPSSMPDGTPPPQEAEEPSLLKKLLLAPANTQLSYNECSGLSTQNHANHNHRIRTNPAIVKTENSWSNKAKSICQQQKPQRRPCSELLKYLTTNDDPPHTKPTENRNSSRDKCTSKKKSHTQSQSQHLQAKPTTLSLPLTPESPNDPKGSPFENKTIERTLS

[10] = target: B4; experiment: native MS; ESI-TOF under non-denaturing conditions, 200 mM ammonium acetate, pH 7.4; settings: both partners purified
[11] = target: B8; experiment: as above; settings: both partners purified
[12] = target: the molecule itself; experiment: SAXS; synchrotron solution scattering (X33 DESY, SWING SOLEIL), direct injection or SEC-coupled; free proteins and complexes

- stoichiometry N [1]: 0.483
- stoichiometry N [2]: 0.793
Molecule: PGC-1α RID1 L3m (LLKYL to AAKYL) (from UniProt Q9UBK2 122-235) (domain or fragment)

- stoichiometry N [1]: 0.846
- stoichiometry N [2]: 0.605
Molecule: PGC-1α RID1 L2m (LKKLL to LKKAA) (from UniProt Q9UBK2 122-235) (domain or fragment)

- Kd [3]: 4100 nM
- Kd [4]: 1300 nM
B1: short peptide encompassing motif L3 of PGC-1α (peptide)
chain: QQQKPQRRPCSELLKYLTTNDD
modifications: Peptide limits are not printed in the supplied text; taken from the PGC-1α L3 peptide crystallised with ERRα (PDB 3D24, cited in the supplement). Termini unknown.

- stoichiometry N [10]: 1 PGC-1α RID2 molecule per ERR homodimer
- stoichiometry N [11]: 1 PGC-1α RID2 molecule per ERR homodimer
B5: PGC-1α RID2 (122–285) (domain or fragment, human, UniProt Q9UBK2 122-285, looked up)
chain: EASPSSMPDGTPPPQEAEEPSLLKKLLLAPANTQLSYNECSGLSTQNHANHNHRIRTNPAIVKTENSWSNKAKSICQQQKPQRRPCSELLKYLTTNDDPPHTKPTENRNSSRDKCTSKKKSHTQSQSQHLQAKPTTLSLPLTPESPNDPKGSPFENKTIERTLS
modifications: 15N-labelled in the NMR experiments
notes: PGC-1α, human, residues 122-285, holds motifs L2 and L3; also called His6-tagged PGC-1α RID2; source: cloned in pET24b; not shown: His6, N-terminal, kept

- Kd [3]: 6100 nM
- Kd [4]: 1200 nM
B6: short peptide encompassing motif L2 of PGC-1α (peptide)
chain: EAEEPSLLKKLLLAPANTQ
modifications: Peptide limits are not printed in the supplied text; 137-155 is the commonly used PGC-1α L2 peptide around motif 144-148. Termini unknown.

The next lines start with the molecule.

B2: PGC-1α RID1 (122–235), wild type (domain or fragment, human, UniProt Q9UBK2 122-235, looked up)
chain: EASPSSMPDGTPPPQEAEEPSLLKKLLLAPANTQLSYNECSGLSTQNHANHNHRIRTNPAIVKTENSWSNKAKSICQQQKPQRRPCSELLKYLTTNDDPPHTKPTENRNSSRDK
modifications: 15N-labelled in the NMR experiments
notes: His6 is named only for RID2; source: cloned in pET24b
- Kd [5]: 71 ± 6 nM
- Kd [6]: 53 ± 3 nM

B3: PGC-1α RID1 (122-235), wild type (domain or fragment, human, UniProt Q9UBK2 122-235, looked up)
chain: EASPSSMPDGTPPPQEAEEPSLLKKLLLAPANTQLSYNECSGLSTQNHANHNHRIRTNPAIVKTENSWSNKAKSICQQQKPQRRPCSELLKYLTTNDDPPHTKPTENRNSSRDK
notes: for ITC, native PAGE and SEC-MALS no cleavage of the PGC-1α tag is told; 15N-labelled for NMR; source: E. coli BL21 (DE3), purified (HisTrap, SEC); not shown: His6, N-terminal, kept
- stoichiometry N [7]: 0.94 ± 0.001
- stoichiometry N [8]: 0.932 ± 0.001

Molecule: B4
- stoichiometry N [9]: 2
- binding result (PGC-1α NTD (1–285)): binds

Molecule: B7
- stoichiometry N [12]: 2 and 6

Molecule: B8
- stoichiometry N [9]: 2
